What all share (assay): BLI
On the technique in general: BLI is a label-free optical method that tracks binding on a fibre tip over time.

Experiment [1] deals with vWF-A1 of C. minimus (C. minimus (Chironectes)).
For experiment [2], the target named is vWF-A1 of Monodelphis emiliae (Monodelphis emiliae).
In experiment [3] the target is vWF-A1 of Lutreolina crassicaudata (Lutreolina crassicaudata).
In experiment [4] the target is vWF-A1 of D. albiventus (D. albiventus (Didelphis)).
Experiment [5] has as its target vWF-A1 of P. quica (P. quica (Philander)).
The target of experiment [6] is vWF-A1 of Didelphis virginiana (Didelphis virginiana).
Experiment [7] addresses vWF-A1 of D. aurita (made by site-directed mutagenesis of the D. marsupialis construct) (D. aurita (Didelphis)).
The target of experiment [8] is vWF-A1 of Monodelphis domestica (Monodelphis domestica).
Experiment [9] addresses vWF-A1 of D. marsupialis (D. marsupialis (Didelphis)).

From article PMC9255381 come the findings set out here.

Bounds are passed on as bounds.

For the substance “botrocetin (isoform B) (natural protein)”, the fold reduction of binding affinity against human vWF in experiment [1], in experiment [2], in experiment [3], in experiment [4], in [5] and in experiment [6] was above 8 fold each time. Also, the fold reduction of binding affinity against human vWF in experiment [7] was 8 fold; in experiment [8] it was above 8 fold; in experiment [9] it was above 8 fold.
Regarding “botrocetin (isoform A) (natural protein)”, the fold reduction of binding affinity against human vWF in experiment [6] and in [9] was above 8 fold in each case.
